Article PMC4701952

Target: T1, SEP3 full length wild type (A. thaliana), O22456
T1 chain: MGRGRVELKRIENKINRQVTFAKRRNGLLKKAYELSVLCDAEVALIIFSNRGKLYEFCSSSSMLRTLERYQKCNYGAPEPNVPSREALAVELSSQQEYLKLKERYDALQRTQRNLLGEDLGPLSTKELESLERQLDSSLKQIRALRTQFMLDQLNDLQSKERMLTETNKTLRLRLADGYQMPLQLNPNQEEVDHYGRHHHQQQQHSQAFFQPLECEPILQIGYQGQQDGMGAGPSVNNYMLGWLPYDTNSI
Experiment: native gel or EMSA; in vitro translated proteins (not purified) with Cy5 labelled SOC1 promoter DNA in which CArG box 1 or CArG box 2 is mutated (one site left)
Details: remark: other sources report otherwise

- stoichiometry N: 4
B1: SEP3 full length wild type, O22456 1-251 (natural protein)
chain: MGRGRVELKRIENKINRQVTFAKRRNGLLKKAYELSVLCDAEVALIIFSNRGKLYEFCSSSSMLRTLERYQKCNYGAPEPNVPSREALAVELSSQQEYLKLKERYDALQRTQRNLLGEDLGPLSTKELESLERQLDSSLKQIRALRTQFMLDQLNDLQSKERMLTETNKTLRLRLADGYQMPLQLNPNQEEVDHYGRHHHQQQQHSQAFFQPLECEPILQIGYQGQQDGMGAGPSVNNYMLGWLPYDTNSI
